“Also recorded” adds a separate entry of the source.
T1: human Ron (Homo sapiens, UniProt Q04912)
T1 construct: the Ron (Sema IPT1)-IgG fusion protein was captured
T1 sequence (Q04912 25-683 limits assumed): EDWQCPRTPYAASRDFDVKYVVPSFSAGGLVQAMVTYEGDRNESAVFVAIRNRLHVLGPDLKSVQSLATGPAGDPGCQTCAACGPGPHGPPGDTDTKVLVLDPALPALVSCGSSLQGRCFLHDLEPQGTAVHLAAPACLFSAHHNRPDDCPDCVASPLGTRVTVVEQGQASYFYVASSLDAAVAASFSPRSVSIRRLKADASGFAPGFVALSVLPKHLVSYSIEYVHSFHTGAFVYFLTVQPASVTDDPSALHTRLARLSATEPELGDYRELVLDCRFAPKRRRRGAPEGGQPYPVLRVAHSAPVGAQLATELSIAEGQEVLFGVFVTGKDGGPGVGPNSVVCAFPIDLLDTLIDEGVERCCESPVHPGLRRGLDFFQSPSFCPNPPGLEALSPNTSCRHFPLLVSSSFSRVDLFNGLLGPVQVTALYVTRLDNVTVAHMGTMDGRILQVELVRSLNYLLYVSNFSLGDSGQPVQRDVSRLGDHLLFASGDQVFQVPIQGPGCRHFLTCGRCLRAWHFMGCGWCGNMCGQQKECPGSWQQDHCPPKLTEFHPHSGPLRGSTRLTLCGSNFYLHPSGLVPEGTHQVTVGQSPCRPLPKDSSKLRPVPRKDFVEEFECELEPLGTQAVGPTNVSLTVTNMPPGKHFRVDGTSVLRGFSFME

B1: pro-MSP-R483E: pro-MSP mutated to render it uncleavable at Arg483-Val484 (protein)
chain: QRSPLNDFQVLRGTELQHLLHAVVPGPWQEDVADAEECAGRCGPLMDCRAFHYNVSSHGCQLLPWTQHSPHTRLRRSGRCDLFQKKDYVRTCIMNNGVGYRGTMATTVGGLPCQAWSHKFPNDHKYTPTLRNGLEENFCRNPDGDPGGPWCYTTDPAVRFQSCGIKSCREAACVWCNGEEYRGAVDRTESGRECQRWDLQHPHQHPFEPGKFLDQGLDDNYCRNPDGSERPWCYTTDPQIEREFCDLPRCGSEAQPRQEATTVSCFRGKGEGYRGTANTTTAGVPCQRWDAQIPHQHRFTPEKYACKDLRENFCRNPDGSEAPWCFTLRPGMRAAFCYQIRRCTDDVRPQDCYHGAGEQYRGTVSKTRKGVQCQRWSAETPHKPQFTFTSEPHAQLEENFCRNPDGDSHGPWCYTMDPRTPFDYCALRRCADDQPPSILDPPDQVQFEKCGKRVDRLDQRRSKLEVVGGHPGNSPWTVSLRNRQGQHFCGGSLVKEQWILTARQCFSSCHMPLTGYEVWLGTLFQNPQHGEPSLQRVPVAKMVCGPSGSQLVLLKLERSVTLNQRVALICLPPEWYVVPPGTKCEIAGWGETKGTGNDTVLNVALLNVISNQECNIKHRGRVRESEMCTEGLLAPVGACEGDYGGPLACFTHNAWVLEGIIIPNRVCARSRWPAVFTRVSVFVDWIHKVMRLG
B2: pro-MSP: inactive single-chain precursor of MSP; recombinant human MSP with C672A mutation expressed in Chinese Hamster Ovary cells (protein, listed as Homo sapiens)
chain: MGWLPLLLLLTQCLGVPGQRSPLNDFQVLRGTELQHLLHAVVPGPWQEDVADAEECAGRCGPLMDCRAFHYNVSSHGCQLLPWTQHSPHTRLRRSGRCDLFQKKDYVRTCIMNNGVGYRGTMATTVGGLPCQAWSHKFPNDHKYTPTLRNGLEENFCRNPDGDPGGPWCYTTDPAVRFQSCGIKSCREAACVWCNGEEYRGAVDRTESGRECQRWDLQHPHQHPFEPGKFLDQGLDDNYCRNPDGSERPWCYTTDPQIEREFCDLPRCGSEAQPRQEATTVSCFRGKGEGYRGTANTTTAGVPCQRWDAQIPHQHRFTPEKYACKDLRENFCRNPDGSEAPWCFTLRPGMRAAFCYQIRRCTDDVRPQDCYHGAGEQYRGTVSKTRKGVQCQRWSAETPHKPQFTFTSEPHAQLEENFCRNPDGDSHGPWCYTMDPRTPFDYCALRRCADDQPPSILDPPDQVQFEKCGKRVDRLDQRRSKLRVVGGHPGNSPWTVSLRNRQGQHFCGGSLVKEQWILTARQCFSSCHMPLTGYEVWLGTLFQNPQHGEPSLQRVPVAKMVCGPSGSQLVLLKLERSVTLNQRVALICLPPEWYVVPPGTKCEIAGWGETKGTGNDTVLNVALLNVISNQECNIKHRGRVRESEMCTEGLLAPVGACEGDYGGPLACFTHNAWVLEGIIIPNRVCARSRWPAVFTRVSVFVDWIHKVMRLG
B3: commercially available MSP: recombinant active form of human MSP (R&D Systems) (protein)
chain 1: QRSPLNDFQVLRGTELQHLLHAVVPGPWQEDVADAEECAGRCGPLMDCRAFHYNVSSHGCQLLPWTQHSPHTRLRRSGRCDLFQKKDYVRTCIMNNGVGYRGTMATTVGGLPCQAWSHKFPNDHKYTPTLRNGLEENFCRNPDGDPGGPWCYTTDPAVRFQSCGIKSCREAACVWCNGEEYRGAVDRTESGRECQRWDLQHPHQHPFEPGKFLDQGLDDNYCRNPDGSERPWCYTTDPQIEREFCDLPRCGSEAQPRQEATTVSCFRGKGEGYRGTANTTTAGVPCQRWDAQIPHQHRFTPEKYACKDLRENFCRNPDGSEAPWCFTLRPGMRAAFCYQIRRCTDDVRPQDCYHGAGEQYRGTVSKTRKGVQCQRWSAETPHKPQFTFTSEPHAQLEENFCRNPDGDSHGPWCYTMDPRTPFDYCALRRCADDQPPSILDPPDQVQFEKCGKRVDRLDQRRSKLR
chain 2: VVGGHPGNSPWTVSLRNRQGQHFCGGSLVKEQWILTARQCFSSCHMPLTGYEVWLGTLFQNPQHGEPSLQRVPVAKMVCGPSGSQLVLLKLERSVTLNQRVALICLPPEWYVVPPGTKCEIAGWGETKGTGNDTVLNVALLNVISNQECNIKHRGRVRESEMCTEGLLAPVGACEGDYGGPLACFTHNCWVLEGIIIPNRVCARSRWPAVFTRVSVFVDWIHKVMRLG

Columns and labels:
human Ron = biological target: T1, human Ron; assay: Binding to Ron by surface plasmon resonance (BIAcore); details: SPR; for detectable binding to Ron: up to a concentration of 1 μM
Experimental: Binding of hepsin-activated pro-MSP to Ron by surface plasmon resonance and ELISA: To determine binding affinity of hepsin-activated MSP to human Ron, surface plasmon resonance measurements on a BIAcore™-3000 instrument (GE Health Care, NJ) were performed. Rabbit anti-human IgG were chemically immobilized (amine coupling) on CM5 biosensor chips and the Ron (Sema IPT1)-IgG fusion protein was captured to give approximately 250 response units (RU). For kinetics measurements, different concentration of either hepsin-activated MSP or a commercially available MSP (R&D systems) were injected in HBS-P buffer at 25° C. with a flow rate of 30 μl/min. Association rates (kon) and dissociation rates (koff) were obtained by using a simple one-to-one Langmuir binding model (BIA-Evaluation) and the equilibrium dissociation constants (KD) were calculated (koff/kon). For ELISA experiments, maxiSorp microtiter plates (Nunc, Roskilde, Denmark) were coated overnight at 4° C. with 2 μg/ml of rabbit anti-human IgG Fc specific antibody (Jackson ImmunoResearch Laboratory, West Grove, Pa.) in 50 mM sodium carbonate buffer, pH 9.6. After blocking with assay buffer (PBS pH 7.4, 0.5% BSA and 0.05% Tween-20, 15 PPM Proclin), 1 μg/ml Ron (Sema IPT1)-IgG fusion protein was added and plates were incubated for 1 hour with gentle shaking at room temperature. After washing with wash buffer (PBS, 0.05% polysorbate 20), His tagged MSP proteins were added for 1 hour. Bound MSP was detected using anti-His-HRP (Qiagen, Valencia, Calif.) followed by addition of TMB/H2O2 substrate (KPL, Gaithersburg, Md.). The reaction was stopped with 1M H3PO4 and the A450 was measured on a Molecular Devices (Sunnyvale, Calif.) SpectraMax Plus^384 microplate reader. The effective concentration to give half-maximal binding (EC50) was determined by a four parameter fit using Kaleidagraph (Synergy Software, Reading, Pa.).

hepsin = biological target: T2, hepsin (Homo sapiens, UniProt P05981); assay: In vitro activation of pro-MSP by recombinant hepsin (SDS-PAGE); format: biochemical; details: 25 μg/ml substrate, hepsin 1.25-10 nM, 37° C., SDS-PAGE reducing; mutant up to 24 hours
T2 construct: The extracellular domain of the human recombinant hepsin was expressed and purified as described; made in house
T2 sequence (P05981 45-417 limits assumed): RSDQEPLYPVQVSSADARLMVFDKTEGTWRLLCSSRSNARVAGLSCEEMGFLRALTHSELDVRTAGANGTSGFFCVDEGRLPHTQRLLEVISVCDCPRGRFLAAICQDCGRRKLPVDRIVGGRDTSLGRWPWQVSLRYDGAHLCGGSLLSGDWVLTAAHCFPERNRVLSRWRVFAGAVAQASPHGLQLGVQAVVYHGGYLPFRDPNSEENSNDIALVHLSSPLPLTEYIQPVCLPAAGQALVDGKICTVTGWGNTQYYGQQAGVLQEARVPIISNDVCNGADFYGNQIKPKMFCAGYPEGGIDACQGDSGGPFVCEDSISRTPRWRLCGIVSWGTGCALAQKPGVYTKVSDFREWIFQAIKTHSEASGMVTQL
Experimental: Analysis of in vitro activation of pro-msp by hepsin using sds-page: Pro-MSP (25 μg/ml) was incubated with different concentrations of hepsin (1.25 nM, 2.5 nM, 5 nM and 10 nM) in a buffer containing 50 mM Tris-HCl pH 8.0, 150 mM NaCl, 0.05% Triton-X100 and 2 mM CaCl2 at 37° C. Aliquots of the reaction mixture at different time points were mixed 6×-SDS sample buffer and the samples were boiled for 5 minutes at 95° C. and separated by SDS-PAGE using a 4-20% gradient gel. Protein was visualized after staining with SimplyBlue Safe Stain (Invitrogen, Carlsbad, Calif.). Similar experiments were performed with the pro-MSP that was mutated to render it uncleavable at Arg483-Val484(pro-MSP-R483E) to assess if proteolytic cleavage site occurs at a different site apart from the expected Arg483-Val484 bond in pro-MSP.

bone marrow macrophages = assay: Inhibition of nitric oxide (NO) synthesis in bone marrow macrophages; format: cell-based, mouse; details: MSP/pro-MSP 10 ng/ml, hepsin 1 nM, 24 hours, Griess reaction
Experimental: Inhibition of NO synthesis by mature MSP: Bone marrow cells obtained from collected mouse femurs were pipetted to a single-cell suspension and then spun down. Red blood cells were lysed by incubation with erythrocyte lysis buffer for 5 minutes at room temperature. Cells were then suspended in macrophage differentiation medium (DMEM with glutamine containing 10% FBS, Pen/Strep and 50 ng/ml recombinant mCSF-1). Cells were then plated onto sterile 24-well non-tissue culture dishes. Medium was changed the next day and subsequently every 2 days. After 6 days in culture, the macrophages were mature and these mature cells were washed in serum-free DMEM and further incubated for 2 hours. Different reactions (total volume 300 μL) as indicated in the figure consisting of recombinant MSP (10 ng/ml), pro-MSP (10 ng/ml), hepsin (1 nM) and Fab25 (500 nM) were added to the respective wells and cultured for 24 hours at 37° C. in a tissue culture incubator. NO production was quantified using Griess reaction (Molecular Probes) according to manufacturer's recommendation.

Ron signaling pathway = assay: Immunoblot for phosphorylated downstream kinases in A2780 cells overexpressing human Ron; format: cell-based; details: pro-MSP 10 and 50 ng/ml, 10 nM hepsin, 1 hour
Experimental: Immunoblot for the detection of phosphorylated kinases: A human ovarian carcinoma cell line (A2780) overexpressing human Ron was used to study the phosphorylation of Ron and other downstream kinase. Cells at a density of 2×10^5 cells/well were cultured in 12-well plate and serum-starved for 24 hours. The cells were then stimulated with either pro-MSP (10 and 50 ng/ml) alone or in presence of 10 nM Hepsin for 1 hour. Mature MSP from a commercial source and hepsin were used as controls. Samples were prepared by washing cells twice with cold PBS followed by addition of 200 ul lysis buffer. Samples were then analyzed by SDS/PAGE on 4-12% Tris-glycine gels (Invitrogen, Carlsbad, Calif.). Proteins were transferred onto nitrocellulose membranes and subsequently treated with anti-Ron antibody or anti-phospho-AKT antibody or anti-phospho-MAPK antibody or anti-phospho-S6 antibody, overnight at 4° C. After washing, membranes were incubated with IRDye800-conjugated goat anti-mouse IgG (Rockland, Gilbertsville, Pa.) and AlexaFluor 680 goat anti-rabbit IgG (Invitrogen) for 1 h. Proteins were detected with the Odyssey Infrared Imaging System (LI-COR Biosciences, Lincoln, Nebr.).

| Molecule | detectable binding to Ron (human Ron) | proteolytic cleavage/activation by hepsin (hepsin) | effect on NO production in response to LPS (bone marrow macrophages) | phosphorylation of MAP kinase and S6 kinase (activation of Ron signaling pathway) (Ron signaling pathway) | Kd (human Ron; Ron-Fc captured on CM5 chip, 1:1 binding model, 25° C., read-out: KD, binding affinity to Ron) [nM] |
| --- | --- | --- | --- | --- | --- |
| B1 | Neither pro-MSP nor the cleavage site mutant (pro-MSP-R483E) had any detectable binding | did not cleave | – | – | – |
| B2 | Neither pro-MSP nor the cleavage site mutant (pro-MSP-R483E) had any detectable binding; also recorded: No detectable binding | activated pro-MSP in a dose-dependent and time dependent manner | did not inhibit | Neither hepsin nor pro-MSP alone was effective | – |
| B3 | – | – | – | – | 4.4 |
